How the values were obtained:
[1] = molecular target: paused elongation complex PEC-161 (E. coli RNAP stalled at C161 of the Bsu-GTR template) (E. coli); assay: single-molecule fluorescence colocalisation
[2] = molecular target: paused elongation complex PEC-225 (E. coli RNAP stalled at U225 of the Bsu-GTR template) (E. coli); assay: single-molecule fluorescence colocalisation
Chain of paused elongation complex PEC-225 (E. coli RNAP stalled at U225 of the Bsu-GTR template) (E. coli) (A1AGI6 whole entry, chain 1 of 4): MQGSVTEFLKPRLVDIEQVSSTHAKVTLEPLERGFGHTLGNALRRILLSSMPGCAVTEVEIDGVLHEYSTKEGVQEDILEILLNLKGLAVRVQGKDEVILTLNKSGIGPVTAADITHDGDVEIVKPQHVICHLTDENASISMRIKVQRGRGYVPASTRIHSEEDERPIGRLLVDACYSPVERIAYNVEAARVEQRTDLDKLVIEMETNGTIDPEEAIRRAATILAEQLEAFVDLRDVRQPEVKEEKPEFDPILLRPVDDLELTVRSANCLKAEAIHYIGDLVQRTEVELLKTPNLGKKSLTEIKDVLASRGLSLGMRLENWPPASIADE
Chain of paused elongation complex PEC-225 (E. coli RNAP stalled at U225 of the Bsu-GTR template) (E. coli) (A1AIF9 whole entry, chain 2 of 4, further chain): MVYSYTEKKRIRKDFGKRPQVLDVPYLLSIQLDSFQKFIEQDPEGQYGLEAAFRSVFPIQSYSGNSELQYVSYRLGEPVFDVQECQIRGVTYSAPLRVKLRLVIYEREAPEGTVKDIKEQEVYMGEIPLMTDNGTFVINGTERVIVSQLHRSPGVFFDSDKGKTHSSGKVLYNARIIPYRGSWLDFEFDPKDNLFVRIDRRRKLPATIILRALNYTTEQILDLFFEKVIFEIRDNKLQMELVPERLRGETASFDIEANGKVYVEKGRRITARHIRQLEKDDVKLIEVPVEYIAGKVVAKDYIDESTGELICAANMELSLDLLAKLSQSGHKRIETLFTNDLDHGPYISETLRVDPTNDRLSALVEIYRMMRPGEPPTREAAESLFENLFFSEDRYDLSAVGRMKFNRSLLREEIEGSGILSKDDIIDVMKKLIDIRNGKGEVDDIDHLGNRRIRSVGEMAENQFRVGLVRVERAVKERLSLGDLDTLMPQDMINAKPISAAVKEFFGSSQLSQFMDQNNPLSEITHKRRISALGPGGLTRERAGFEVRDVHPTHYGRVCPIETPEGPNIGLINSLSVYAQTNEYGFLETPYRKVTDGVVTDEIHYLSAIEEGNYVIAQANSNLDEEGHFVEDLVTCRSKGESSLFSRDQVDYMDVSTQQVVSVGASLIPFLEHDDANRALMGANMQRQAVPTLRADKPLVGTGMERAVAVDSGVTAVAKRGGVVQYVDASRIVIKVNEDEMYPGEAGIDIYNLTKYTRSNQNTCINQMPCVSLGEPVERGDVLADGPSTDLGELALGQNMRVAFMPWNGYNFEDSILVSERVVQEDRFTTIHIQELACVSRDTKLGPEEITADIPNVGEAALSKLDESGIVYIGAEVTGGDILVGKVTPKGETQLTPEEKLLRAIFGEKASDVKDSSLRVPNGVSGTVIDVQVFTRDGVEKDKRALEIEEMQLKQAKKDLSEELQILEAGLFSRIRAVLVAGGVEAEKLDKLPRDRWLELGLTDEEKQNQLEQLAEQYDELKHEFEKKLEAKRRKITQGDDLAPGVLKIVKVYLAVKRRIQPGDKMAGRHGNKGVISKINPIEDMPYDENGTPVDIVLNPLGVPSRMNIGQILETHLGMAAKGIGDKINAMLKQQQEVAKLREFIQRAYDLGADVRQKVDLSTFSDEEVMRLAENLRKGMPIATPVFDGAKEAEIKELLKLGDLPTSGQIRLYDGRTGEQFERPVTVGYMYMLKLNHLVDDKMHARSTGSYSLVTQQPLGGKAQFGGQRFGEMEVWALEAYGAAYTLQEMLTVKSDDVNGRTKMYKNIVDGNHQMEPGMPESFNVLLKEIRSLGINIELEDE
Chain of paused elongation complex PEC-225 (E. coli RNAP stalled at U225 of the Bsu-GTR template) (E. coli) (A7ZUK2 whole entry, chain 3 of 4, further chain): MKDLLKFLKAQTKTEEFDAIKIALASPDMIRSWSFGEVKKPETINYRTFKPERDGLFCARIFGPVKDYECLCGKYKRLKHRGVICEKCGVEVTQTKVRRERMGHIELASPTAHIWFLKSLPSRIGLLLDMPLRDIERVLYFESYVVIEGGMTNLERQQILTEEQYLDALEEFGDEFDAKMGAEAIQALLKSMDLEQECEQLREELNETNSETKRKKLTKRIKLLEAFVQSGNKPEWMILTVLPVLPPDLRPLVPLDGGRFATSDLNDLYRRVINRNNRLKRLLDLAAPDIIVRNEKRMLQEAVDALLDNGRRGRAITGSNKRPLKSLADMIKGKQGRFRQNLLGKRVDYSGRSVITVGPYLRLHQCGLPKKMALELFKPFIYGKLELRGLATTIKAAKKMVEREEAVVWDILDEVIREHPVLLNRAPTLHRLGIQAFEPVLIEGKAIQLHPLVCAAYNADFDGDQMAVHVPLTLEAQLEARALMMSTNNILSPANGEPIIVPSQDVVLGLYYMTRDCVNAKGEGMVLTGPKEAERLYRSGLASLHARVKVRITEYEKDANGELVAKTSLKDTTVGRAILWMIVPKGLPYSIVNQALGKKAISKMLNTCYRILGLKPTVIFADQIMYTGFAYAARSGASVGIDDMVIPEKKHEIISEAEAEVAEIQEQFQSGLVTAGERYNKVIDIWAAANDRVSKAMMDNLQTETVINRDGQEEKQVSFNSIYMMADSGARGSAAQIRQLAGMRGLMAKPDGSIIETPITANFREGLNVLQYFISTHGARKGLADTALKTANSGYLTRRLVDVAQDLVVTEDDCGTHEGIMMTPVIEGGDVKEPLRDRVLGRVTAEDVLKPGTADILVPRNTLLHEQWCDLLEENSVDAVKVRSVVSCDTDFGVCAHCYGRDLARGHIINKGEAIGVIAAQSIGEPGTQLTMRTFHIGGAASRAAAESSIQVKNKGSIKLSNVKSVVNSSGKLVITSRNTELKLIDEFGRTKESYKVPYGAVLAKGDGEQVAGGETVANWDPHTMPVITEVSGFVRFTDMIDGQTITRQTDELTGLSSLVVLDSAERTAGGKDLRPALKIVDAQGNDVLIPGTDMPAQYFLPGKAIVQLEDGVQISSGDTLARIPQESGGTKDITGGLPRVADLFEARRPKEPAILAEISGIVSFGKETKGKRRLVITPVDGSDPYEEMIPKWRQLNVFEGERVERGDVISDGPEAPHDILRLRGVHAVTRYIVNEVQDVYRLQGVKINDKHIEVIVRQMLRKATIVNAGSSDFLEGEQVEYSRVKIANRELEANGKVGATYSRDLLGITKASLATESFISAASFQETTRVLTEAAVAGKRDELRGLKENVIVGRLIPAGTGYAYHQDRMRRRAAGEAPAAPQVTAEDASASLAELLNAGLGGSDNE
Chain of paused elongation complex PEC-225 (E. coli RNAP stalled at U225 of the Bsu-GTR template) (E. coli) (A1AHI0 2-91 limits assumed, chain 4 of 4, further chain): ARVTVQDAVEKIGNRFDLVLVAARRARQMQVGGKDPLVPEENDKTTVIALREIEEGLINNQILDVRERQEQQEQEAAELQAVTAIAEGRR

koff [1]: 0.81 s⁻¹ | kon [1]: 1.12e+07 M⁻¹ s⁻¹ | kon, fast (fraction 45%) [1]: 2.34e+07 M⁻¹ s⁻¹ | kon, slow (fraction 55%) [1]: 2.29e+06 M⁻¹ s⁻¹ | koff [2]: 0.47 s⁻¹ | kon [2]: 4.16e+06 M⁻¹ s⁻¹ | kon, fast (fraction 50%) [2]: 7.26e+06 M⁻¹ s⁻¹ | kon, slow (fraction 50%) [2]: 1.38e+06 M⁻¹ s⁻¹
Substance: NusA-Cy5 (from UniProt P0AFF6 1-495) (natural protein)
